Measured values published in PMC11371828 (Nature Communications, 2024).
Numbering of substitutions follows the chain as printed.

Columns and labels:
[1] = target: T1, 6xHis-IKKβ(1-669) EE M475A (human, UniProt O14920 1-669, S177E | S181E | M475A); assay: pull-down
T1 sequence (looked up): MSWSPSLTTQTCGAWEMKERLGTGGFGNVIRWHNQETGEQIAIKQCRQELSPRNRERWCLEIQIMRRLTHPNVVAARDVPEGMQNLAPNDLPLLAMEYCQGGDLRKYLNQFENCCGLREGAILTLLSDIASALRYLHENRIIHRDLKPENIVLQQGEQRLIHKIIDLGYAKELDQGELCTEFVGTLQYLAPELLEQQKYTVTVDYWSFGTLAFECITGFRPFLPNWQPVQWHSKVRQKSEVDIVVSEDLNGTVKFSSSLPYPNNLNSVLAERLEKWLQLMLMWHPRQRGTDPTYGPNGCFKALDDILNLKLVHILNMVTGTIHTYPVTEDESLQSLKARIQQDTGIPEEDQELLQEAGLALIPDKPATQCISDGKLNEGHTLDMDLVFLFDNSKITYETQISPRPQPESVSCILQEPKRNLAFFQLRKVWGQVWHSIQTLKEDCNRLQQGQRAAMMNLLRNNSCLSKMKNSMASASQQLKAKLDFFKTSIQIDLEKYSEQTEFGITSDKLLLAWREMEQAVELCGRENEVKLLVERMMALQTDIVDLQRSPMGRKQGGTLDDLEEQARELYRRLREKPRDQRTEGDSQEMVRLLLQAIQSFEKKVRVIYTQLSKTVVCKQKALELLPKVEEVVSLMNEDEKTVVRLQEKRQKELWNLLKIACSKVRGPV

6xHis-IKKβ(1-669) EE = target: T2, 6xHis-IKKβ(1-669) EE (human, UniProt O14920 1-669, S177E | S181E); assay: pull-down
T2 sequence (looked up): T1 sequence (looked up) with A475M

Question: Which results are given for DELPYDDCVFGGQRLTL (peptide, UniProt P25963 301-317, looked up) [MBP-IκBα pep(s)]?
Answer: binding result [1]: binds; binding result (6xHis-IKKβ(1-669) EE): binds
